Values of other authors, collected in article PMC7337045.

Molecular target: IRS-1 phosphopeptide (UniProt P35570)
Sequence (P35570 whole entry, looked up, tested part not stated): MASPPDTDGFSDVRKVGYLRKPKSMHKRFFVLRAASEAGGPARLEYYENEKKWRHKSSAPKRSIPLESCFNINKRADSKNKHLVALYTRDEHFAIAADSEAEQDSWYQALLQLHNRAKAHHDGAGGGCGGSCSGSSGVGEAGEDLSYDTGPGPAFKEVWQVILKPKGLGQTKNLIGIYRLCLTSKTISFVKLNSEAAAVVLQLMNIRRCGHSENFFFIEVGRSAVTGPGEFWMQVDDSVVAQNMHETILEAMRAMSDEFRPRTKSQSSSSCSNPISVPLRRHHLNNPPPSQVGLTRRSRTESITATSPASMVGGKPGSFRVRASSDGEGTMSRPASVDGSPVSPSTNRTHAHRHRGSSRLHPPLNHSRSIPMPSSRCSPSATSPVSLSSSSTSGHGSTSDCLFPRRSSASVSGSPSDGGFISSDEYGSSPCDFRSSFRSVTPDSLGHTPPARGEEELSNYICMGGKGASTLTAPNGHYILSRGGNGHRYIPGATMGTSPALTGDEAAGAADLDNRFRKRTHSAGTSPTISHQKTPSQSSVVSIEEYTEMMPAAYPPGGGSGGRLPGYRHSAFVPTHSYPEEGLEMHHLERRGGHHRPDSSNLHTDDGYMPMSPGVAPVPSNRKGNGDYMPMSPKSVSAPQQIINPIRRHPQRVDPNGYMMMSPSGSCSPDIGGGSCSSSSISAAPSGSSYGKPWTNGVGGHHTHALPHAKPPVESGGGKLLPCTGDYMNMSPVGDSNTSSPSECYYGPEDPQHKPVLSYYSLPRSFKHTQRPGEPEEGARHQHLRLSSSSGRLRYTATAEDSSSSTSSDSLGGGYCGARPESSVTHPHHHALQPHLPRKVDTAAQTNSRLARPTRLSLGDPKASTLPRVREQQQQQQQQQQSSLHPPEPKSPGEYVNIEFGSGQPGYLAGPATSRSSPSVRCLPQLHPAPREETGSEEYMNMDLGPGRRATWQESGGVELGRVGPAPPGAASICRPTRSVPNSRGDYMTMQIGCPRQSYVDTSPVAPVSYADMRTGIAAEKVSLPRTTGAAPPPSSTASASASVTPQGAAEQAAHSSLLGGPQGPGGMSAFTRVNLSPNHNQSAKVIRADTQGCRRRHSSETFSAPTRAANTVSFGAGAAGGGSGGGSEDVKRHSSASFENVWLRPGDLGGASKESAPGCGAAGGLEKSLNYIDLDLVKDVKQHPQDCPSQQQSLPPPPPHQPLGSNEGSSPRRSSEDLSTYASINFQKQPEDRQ

- Kd: 14 nM
Substance: SHP2 N-SH2 (from UniProt Q06124)
